This note sets out measurements from the supplement of paper PMC12042874.

± gives the uncertainty stated by the source.

The first data set in a line: amyloid nucleation score (Sup35N fusion, yeast selection) (log enrichment); library NNK3; higher = more nucleation; inactive = no reads after selection. The method in brief: (§1)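 The nucleation score is the DiMSum log enrichment of output over input reads, centred on the mode score of non-aggregating sequences. Only sequences with 100 or more input reads were scored, using Illumina sequencing of input and output plasmid inserts. Psi-negative yeast expressing Sup35N fused to peptides of 20 random codons were induced 24 hours with 100 μM copper sulfate and grown 7 days at 30°C on medium lacking adenine and uracil.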
For the substance YSLRVHSAYIVVKYII, the amyloid nucleation score result is “inactive”.

As to YSLVYAYMESTMYYCLGLRM, the amyloid nucleation score entry is “inactive”.

Turning to YSMRRTDIHPVVFRQ, the amyloid nucleation score result is “inactive”.

In the case of YSNRVGNAYMGSLKTSWHVM, the amyloid nucleation score result is “inactive”.

Turning to YSRMCLVY, the amyloid nucleation score entry was “inactive”.

YSRSGISFFTGRHKLFSMYG: the amyloid nucleation score entry was “inactive”.

For YSRTDSQGMTNEMVNLGVDV, the amyloid nucleation score result is “inactive”.

In the case of YSSQLILTYDTRL, the amyloid nucleation score result was “inactive”.

Turning to YSVAHQIPDDDRQGE, the amyloid nucleation score result is “inactive”.

In the case of YSVNMLFAAS, the amyloid nucleation score result was “inactive”.

In turn, YSVPRKSIICIKFDGFWRCV registered an amyloid nucleation score of 1.96 ± 0.096.

Regarding YSVVDEKVALSSSWHSCLPL, the amyloid nucleation score result was “inactive”.

For YTCNSWILDANNLANEPVSK, the amyloid nucleation score entry is “inactive”.

Take YTDTYSSLKDLPTGINCYNI: the amyloid nucleation score entry is “inactive”.

On to YTIMRNYGFLGARISRGSGS, for which the amyloid nucleation score entry was “inactive”.

Regarding YTLPGIQAGFWARCVSHTRL, the amyloid nucleation score result is “inactive”.

Take YTLVDRSICT: the amyloid nucleation score entry is “inactive”.

In the case of YTPGLPSDFN, the amyloid nucleation score entry was “inactive”.

Consider YTSGLVNFVVMDPGL, for which the amyloid nucleation score result was “inactive”.

Regarding YTSLCASVNGGLTIS, the amyloid nucleation score was -0.464 ± 0.8.

Consider YTWDVGHLKNSSSVYWKLLR, for which the amyloid nucleation score entry was “inactive”.

As for YVCCYARNDRRFSWERRHLS, the amyloid nucleation score result was “inactive”.

Regarding YVCDRL, the amyloid nucleation score result was “inactive”.

Regarding YVCGKF, the amyloid nucleation score entry is “inactive”.

In the case of YVCLYEDLTYIA, the amyloid nucleation score result is “inactive”.

For the substance YVCRRVSQDVRNLTKSVMCV, the amyloid nucleation score result is “inactive”.

YVGLDVVPGVLGIGFILLYD: the amyloid nucleation score entry was “inactive”.

On to YVNECFSVSLICCYMLFYN, for which the amyloid nucleation score came to 1.52 ± 0.072.

With YVNSNWNNISAQASNSFSGR, the amyloid nucleation score entry is “inactive”.

For YVNTDVIVHENVFLLNSHNS, the amyloid nucleation score is 1.69 ± 0.089.

As to YVRIQRMRFYSCEHWVHHIG, the amyloid nucleation score entry was “inactive”.

Take YVSKVYLDH: the amyloid nucleation score result was “inactive”.

Turning to YVVAGS, the amyloid nucleation score entry was “inactive”.

For the substance YVVHRLSRVFQLANLYYYAK, the amyloid nucleation score result was “inactive”.

On to YVVREHYNGCATPN, for which the amyloid nucleation score entry was “inactive”.

For YWDCGLCVNEMGRFICCLGG, the amyloid nucleation score result was “inactive”.

For YWIAIFTLHFLLDPRFRNSM, the amyloid nucleation score entry is “inactive”.

As for YWQWSNV, the amyloid nucleation score entry is “inactive”.

YWSAVHEDYHTASMMEPLWW: the amyloid nucleation score result is “inactive”.

Consider YWVLRFRSSCGYSRMRLGPR, for which the amyloid nucleation score entry is “inactive”.

For YYAFPLYKKSFYRIPTNVWA, the amyloid nucleation score result is “inactive”.

With YYLCVVPLRLLGRCASWSFG, the amyloid nucleation score result was “inactive”.

YYLNKVVSIVNRLFVAFAPC: the amyloid nucleation score entry was “inactive”.

With YYLRKVKRKENTSMLHAAFS, the amyloid nucleation score result was “inactive”.

YYLSLHR: the amyloid nucleation score result was “inactive”.

Take YYNDSPAFHLRVR: the amyloid nucleation score entry was “inactive”.

For YYNVAMRCRSHHTRMSIFWC, the amyloid nucleation score result is “inactive”.

As to YYRSCWLSLCWCYHYCYGVD, the amyloid nucleation score is 0.346 ± 0.61.

YYSGCVLIRRILYLGRVGSP: the amyloid nucleation score entry is “inactive”.

Consider YYSMTKNARCGHSFEAKSLF, for which the amyloid nucleation score entry is “inactive”.

On to YYSSWLFTGMVGSYTFTALC, for which the amyloid nucleation score result was “inactive”.

As to YYVSRVSKMCWLRDVRWISI, the amyloid nucleation score result is “inactive”.

With YYWTKGGFKEITI, the amyloid nucleation score entry is “inactive”.

For YYYGKWYLYEKHSVVFRGCR, the amyloid nucleation score result was “inactive”.

The next data set in a line: amyloid nucleation score (Sup35N fusion, yeast selection) (log enrichment); library NNK2; higher = more nucleation; inactive = no reads after selection. The method in brief:
as §1
In the case of AAIMDTKVWLPETWHTF, the amyloid nucleation score is 4.86 ± 0.049.

As to AALPFHEVPTGLMITRAFWD, the amyloid nucleation score turned out to be 3.72 ± 0.13.

In the case of AAPVMH, the amyloid nucleation score was -0.354 ± 0.76.

For the substance AAWIAMCRILKQPTRCGHFL, the amyloid nucleation score is 6.15 ± 0.073.

For the substance ACAMFSKRSHSITSVVMGYG, the amyloid nucleation score amounted to 0.29 ± 0.48.

Take ACDSAIIGWNKIT: the amyloid nucleation score was found to be 0.504 ± 0.54.

In turn, ACETCPAAEIYLICGTWKSR registered an amyloid nucleation score of 9.36 ± 0.034.

ACLLLRSMFSKQRLTFR: the amyloid nucleation score is -0.38 ± 0.76.

On to ACNFFPLI, for which the amyloid nucleation score worked out at 3.29 ± 0.065.

Take ACNSRHHEFMSSKFYSATQL: the amyloid nucleation score was -1.3 ± 0.78.

Substance ACQHSG returned an amyloid nucleation score of 4.36 ± 0.048.

For the substance ACSQLSYWTFHSPWP, the amyloid nucleation score was 4.07 ± 0.072.

For ACVCHREGCVAKGIIVM, the amyloid nucleation score is 0.237 ± 1.

For ACVWNDIEGMNTFTVNSFFL, the amyloid nucleation score came to 3.39 ± 0.16.

The substance ADQSYLRNCIFWRQMILTRY gave an amyloid nucleation score of -0.193 ± 0.39.

Consider ADRSVGGFNCVSFLYAVN, for which the amyloid nucleation score was 4.02 ± 0.076.

For the substance AEGSDGCLKLNGAITIGHMI, the amyloid nucleation score result was “inactive”.

In turn, AEGVSL had an amyloid nucleation score of -0.554 ± 1.

AFEDVDVQS had an amyloid nucleation score of 0.94 ± 0.32.

Consider AFEFQYFIGGFRTRIMNCVF, for which the amyloid nucleation score result was “inactive”.

AFEPDIK came in with an amyloid nucleation score of -0.738 ± 0.62.

AFIYYFNLTSAHYFPMRQMF: the amyloid nucleation score result is “inactive”.

Take AFRDRWLKRMKLTYVVGCIN: the amyloid nucleation score is -0.17 ± 0.45.

In turn, AFVSSQVSTYYNFRTKDYSW registered an amyloid nucleation score of 3.68 ± 0.098.

Take AGAHVVKAIHFSLYGNEGLT: the amyloid nucleation score was 0.6 ± 0.74.

For the substance AGCGIPALTYNNRRAKTHAQ, the amyloid nucleation score came to 0.901 ± 0.53.

AGELGLNIYVLSIYK showed an amyloid nucleation score of 5.26 ± 0.067.

AGEYDLIFYLDFYMGNEVIS registered an amyloid nucleation score of 2.29 ± 0.13.

AGFMHVCYGSGQHRSKVDGC came in with an amyloid nucleation score of 2.93 ± 0.082.

On to AGILLYHPQNMHDSPLQMTR, for which the amyloid nucleation score turned out to be 3.71 ± 0.099.

AGNQIRIRASTCASMLGWDL: the amyloid nucleation score turned out to be 3.83 ± 0.051.

AGTFKRWPLGYECFVSERIG showed an amyloid nucleation score of -0.803 ± 0.49.

For the substance AHCIFVLDGAKFRLWCLGSG, the amyloid nucleation score was 1.11 ± 0.41.

For AHIREMNVSGGCWLVQWVSK, the amyloid nucleation score was determined as 9.497 ± 0.038.

The substance AHIVGMSSSWRLKRYISIES came in with an amyloid nucleation score of 0.768 ± 0.43.

Consider AHRYGR, for which the amyloid nucleation score is 1.57 ± 0.43.

Substance AIIGKFVGVCCD showed an amyloid nucleation score of -0.931 ± 1.1.

The substance AILLGLWCCTWFREALACLA came in with an amyloid nucleation score of 1.04 ± 0.29.

In the case of AIPVYFVLLMSITPLQLVVM, the amyloid nucleation score was found to be 1.38 ± 0.15.

Take AIQQTQLLCIENMVGLFVVR: the amyloid nucleation score came out at 0.58 ± 0.64.

For AIRGRLKLVDMRHVIPKLKR, the amyloid nucleation score amounted to 1.21 ± 0.33.

Substance AIVGEMMALFYDNLSRGGVH displayed an amyloid nucleation score of -0.505 ± 0.47.

Consider AIVSMFGVITY, for which the amyloid nucleation score was -2.57 ± 0.62.

Consider AKLPKPSRLHQRLTKQTV, for which the amyloid nucleation score came out at 1.19 ± 0.38.

For AKLRHWDCHFTR, the amyloid nucleation score came out at 0.405 ± 0.2.

Substance AKSNLVDFYTFWSTIECLTM registered an amyloid nucleation score of -0.808 ± 0.48.

With ALFMDPFAVTLMRGL, the amyloid nucleation score stood at 0.137 ± 0.54.

Substance ALGYSRLTEYGLDRMVQTAC had an amyloid nucleation score of 0.908 ± 0.52.

As to ALINHWNLVTFS, the amyloid nucleation score entry is “inactive”.

Regarding ALIRFCTSW, the amyloid nucleation score was 0.588 ± 0.16.

Take ALPPPVKELPWISRFRQWGR: the amyloid nucleation score was 1.22 ± 0.47.

ALTVKSQLCG registered an amyloid nucleation score of -1.71 ± 1.1.

With ALWTLNDSSPDYKSPYTGGS, the amyloid nucleation score worked out at 0.508 ± 0.6.

Substance ALYFVIQLPV returned an amyloid nucleation score of -0.677 ± 0.63.

Consider AMLRPQTDHGVSSIHSLIIG, for which the amyloid nucleation score entry was “inactive”.

AMRFLALAWWTPGFSIGELM came in with an amyloid nucleation score of 4.846 ± 0.035.

Substance AMSECQHKMQWAAFSVFPGQ gave an amyloid nucleation score of 5.91 ± 0.089.

With AMWESLP, the amyloid nucleation score stood at 1.41 ± 0.25.

Regarding AMWFN, the amyloid nucleation score amounted to 0.932 ± 0.47.

As for AMYLPWARCSISPTNLIFNL, the amyloid nucleation score is -1.1 ± 0.42.

As to ANGGYMVYSFAEEYYYDWCT, the amyloid nucleation score is -0.063 ± 0.29.

As for ANMLRWLNFETFAVSRNLAI, the amyloid nucleation score is 0.009 ± 0.74.

ANMTSHEFRWKSN gave an amyloid nucleation score of -0.168 ± 1.1.

ANNICCGASEKYGRWASTID displayed an amyloid nucleation score of -0.76 ± 1.

On to ANYMRYYSGLICFTESRYMS, for which the amyloid nucleation score came out at 1.5 ± 0.17.

As for APGWKLMNTSPNRMSTLNLQ, the amyloid nucleation score is -0.633 ± 1.1.

APHSLVVGCTVVLF gave an amyloid nucleation score of 7.589 ± 0.037.

As for APRWWFYVDSY, the amyloid nucleation score was 0.237 ± 1.

As to AQCAYTTDGFPFLCWRSGTF, the amyloid nucleation score came out at 0.701 ± 0.6.

Consider ARCTKINLGPYRGSINSLFW, for which the amyloid nucleation score result is “inactive”.

Take ARFILFVALFWKFLY: the amyloid nucleation score amounted to 0.431 ± 0.46.

As to ARFWWALGNLCERIAGNDWV, the amyloid nucleation score stood at 0.216 ± 0.44.

ARGGKLLSCFCSGWRLDHVR had an amyloid nucleation score of 9.958 ± 0.051.

Regarding ARLLTRNINESNRFI, the amyloid nucleation score is 0.065 ± 0.28.

Take ARLLWMRP: the amyloid nucleation score entry was “inactive”.

With ARMITWGRNMILTPSPMRHK, the amyloid nucleation score was -0.783 ± 1.

The substance ARMSFWRRRPLLLSLRRSGV came in with an amyloid nucleation score of 0.379 ± 0.44.

Substance ARNWVHNCFWSHISFTSIA returned an amyloid nucleation score of 1.59 ± 0.13.

ARQDYWIRWLTALSMMYGSG registered an amyloid nucleation score of -0.071 ± 0.31.

With ARSMVMHYFWGSTLAPESKF, the amyloid nucleation score was -0.801 ± 0.45.
